Measurements published in article PMC10273338.

Target: T1, HspB8, Q9UJY1
T1 chain: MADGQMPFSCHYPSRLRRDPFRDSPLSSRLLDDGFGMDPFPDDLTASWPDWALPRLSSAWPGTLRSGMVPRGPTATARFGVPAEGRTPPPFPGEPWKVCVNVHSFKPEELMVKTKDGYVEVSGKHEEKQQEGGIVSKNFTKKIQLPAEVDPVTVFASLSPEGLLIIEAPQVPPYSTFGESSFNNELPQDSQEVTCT
Test: SPR; BIACORE X; HspB8 amine-coupled to a CM5 chip (7400 RU); running buffer 10 mM HEPES pH 7.4, 150 mM NaCl, 3 mM EDTA, 0.005% P20; 10 uL/min; Langmuir 1:1 fit
Conditions: remark: other sources report otherwise

B1: HspB8, Q9UJY1 1-196 (natural protein)
chain: T1 chain
Q: Which results are given for B1?
A: Ka: 5.2e+06 M⁻¹; Kd: 190 nM; koff: 0.00048 s⁻¹; kon: 2500 M⁻¹ s⁻¹
